Each block holds one molecule with its values, some of them ahead of it.
What was measured:
[1] = target: T1, ICE (Homo sapiens, UniProt P29466); assay: Inhibition of ICE cleavage of pIL-1β, SDS-PAGE and Western blotting; assay type: biochemical; set-up: expressed in transfected cells; host or cells: COS-7 cells transfected with pSG5-ICE cDNA, or alternatively lysate of freshly isolated human monocytes; settings: pIL-1β 5 ng incubated with ICE; peptides 100, 300 or 1,000 μM; Western blotting
T1 sequence (P29466 120-404): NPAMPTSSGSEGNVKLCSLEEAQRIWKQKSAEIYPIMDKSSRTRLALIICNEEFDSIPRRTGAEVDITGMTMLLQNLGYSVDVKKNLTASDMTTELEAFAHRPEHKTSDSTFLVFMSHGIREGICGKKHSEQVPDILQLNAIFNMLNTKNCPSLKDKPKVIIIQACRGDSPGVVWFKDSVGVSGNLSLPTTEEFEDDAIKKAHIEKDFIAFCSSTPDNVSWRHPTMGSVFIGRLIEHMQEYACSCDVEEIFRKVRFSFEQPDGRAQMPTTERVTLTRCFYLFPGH
Procedure: cDNA coding for human ICE has been amplified by PCR. The sequence was confirmed and the cDNA was subcloned into pSG5 expression vector. COS cells were transfected with empty vector (mock) or vector containing ICE cDNA and after 48 hours, cells were analysed for the expression of ICE specific mRNA.
A monocyte lysate, prepared as previously described (11), was also able to convert pIL-1β into a mature form (FIG. 2). Therefore, recombinant ICE or freshly isolated human monocytes were used as a source of ICE enzymatic activity for further experiments.
A source of ICE activity was prepared and its ability to cleave pIL-1β was tested by incubating the reaction at 37° C. for 1 hour. The mixture was then run on SDS-PAGE and the presence of pIL1-β or the mature form was evidenced by Western Blotting.

[2] = target: Human recombinant IL-1β precursor, P01584
Human recombinant IL-1β precursor, P01584, sequence (P01584 whole entry, looked up): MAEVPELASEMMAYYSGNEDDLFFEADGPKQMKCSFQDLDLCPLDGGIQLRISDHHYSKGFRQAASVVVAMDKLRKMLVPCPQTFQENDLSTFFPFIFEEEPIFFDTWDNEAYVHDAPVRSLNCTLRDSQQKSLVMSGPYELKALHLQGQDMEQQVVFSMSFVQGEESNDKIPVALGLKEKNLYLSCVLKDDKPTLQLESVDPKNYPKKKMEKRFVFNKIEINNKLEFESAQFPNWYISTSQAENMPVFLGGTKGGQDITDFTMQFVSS

inhibition of ICE activity (FIG. 6) [1]: inhibition of ICE activity
Molecule: peptide C: SEQ ID NO:4, designed on the basis of icIL-1raII sequence (MALADLYEEGGGGGGEGEDNADSK)

inhibition of ICE activity (FIG. 6) [1]: inhibition of ICE activity
Molecule: peptide S: SEQ ID NO:5, identical to peptide C except for two Ala substituting the two Asp residues (MALAALYEEGGGGGGEGEDNAASK)

B1: ICE (Interleukin-1β-Converting Enzyme), human (protein)
chain: MADKVLKEKRKLFIRSMGEGTINGLLDELLQTRVLNKEEMEKVKRENATVMDKTRALIDSVIPKGAQACQICITYICEEDSYLAGTLGLSADQTSGNYLNMQDSQGVLSSFPAPQAVQDNPAMPTSSGSEGNVKLCSLEEAQRIWKQKSAEIYPIMDKSSRTRLALIICNEEFDSIPRRTGAEVDITGMTMLLQNLGYSVDVKKNLTASDMTTELEAFAHRPEHKTSDSTFLVFMSHGIREGICGKKHSEQVPDILQLNAIFNMLNTKNCPSLKDKPKVIIIQACRGDSPGVVWFKDSVGVSGNLSLPTTEEFEDDAIKKAHIEKDFIAFCSSTPDNVSWRHPTMGSVFIGRLIEHMQEYACSCDVEEIFRKVRFSFEQPDGRAQMPTTERVTLTRCFYLFPGH
conversion of pIL-1β into the mature form (Western blotting after 60 minutes at 37° C.) [2]: A monocyte lysate, prepared as previously described (11), was also able to convert pIL-1β into a mature form

Reference: patent publication US6380162B1, “Ice inhibiting peptides” (Applied Research Systems ARS Holding N.V., priority 1999, dated 2002)
